Assay results published in the Human Domainome abundance scans (Beltran et al. 2025).
± gives the uncertainty stated by the source.

B1: Metastasis-associated protein MTA3, residues 265 to 317; numbered along this chain, Q9BTC8 (parent)
chain: RDEMEEWSASEASLFEEALEKYGKDFNDIRQDFLPWKSLTSIIEYYYMWKTTD
B2: Ras GTPase-activating protein 1, residues 281 to 341; numbered along this chain, P20936 (parent)
chain: RRRVRAILPYTKVPDTDEISFLKGDMFIVHNELEDGWMWVTNLRTDEQGLIVEDLVEEVGR

Variants of: B1
Assay: abundance fitness (aPCA) (normalised: wild type 0, dead -1); higher = more abundant; growth selection in yeast, the domain comes from the species named
Conditions: Homo sapiens

Abundance fitness of substitutions, site by site:
S10: N -0.005 ± 0.14, K 0.219 ± 0.1, Y -0.158 ± 0.083, F -0.216 ± 0.13, Q -0.252 ± 0.11, P -0.743 ± 0.1, E -0.012 ± 0.1, I -0.462 ± 0.2, M -0.152 ± 0.1, L -0.038 ± 0.063, H -0.139 ± 0.13, R -0.156 ± 0.072, T -0.091 ± 0.08, A -0.154 ± 0.087, W 0.031 ± 0.084, G -0.275 ± 0.092
E11: H -0.175 ± 0.12, K -0.562 ± 0.11, V -0.7 ± 0.12, N -0.91 ± 0.2, R -0.92 ± 0.13, G -0.68 ± 0.15, M 0.052 ± 0.11, W -0.78 ± 0.1, S -0.883 ± 0.11, C -0.818 ± 0.21, T -0.567 ± 0.081, Y -0.788 ± 0.19, F -0.87 ± 0.087, P -1.04 ± 0.19, D 0.386 ± 0.078, Q -0.811 ± 0.11, L -0.713 ± 0.088, I -1.1 ± 0.22, A -0.623 ± 0.092
L14: Q -0.68 ± 0.15, F -0.842 ± 0.11, N -0.639 ± 0.17, A -0.396 ± 0.087, D -0.723 ± 0.099, Y -0.353 ± 0.17, M -0.688 ± 0.21, V -0.686 ± 0.12, W -0.956 ± 0.18, R -0.602 ± 0.082, E -1 ± 0.25, K -0.168 ± 0.17, H -0.945 ± 0.17, G -0.866 ± 0.12, I -0.444 ± 0.11, P -0.872 ± 0.2
W7: F -0.681 ± 0.26, E -0.925 ± 0.33, L -0.71 ± 0.099, H -0.909 ± 0.14, V -0.979 ± 0.14, M -1 ± 0.36, R -0.715 ± 0.15, T -0.884 ± 0.15, Y -0.496 ± 0.19, S -0.777 ± 0.11, G -0.427 ± 0.16, Q -1.03 ± 0.25, A -0.51 ± 0.12, C -0.952 ± 0.13, D -0.814 ± 0.28, N -0.697 ± 0.18, K -0.549 ± 0.17
R1: N 0.378 ± 0.14, L -0.098 ± 0.11, W -0.044 ± 0.26, G 0.335 ± 0.17, P -0.529 ± 0.34, C 0.057 ± 0.077, A 0.304 ± 0.35, S -0.259 ± 0.2, T 0.299 ± 0.16, F 0.372 ± 0.15, I 0.025 ± 0.23, V 0.231 ± 0.4, M 0.11 ± 0.23, K 0.028 ± 0.26
M4: W -0.666 ± 0.37, V -0.422 ± 0.19, I -0.211 ± 0.3, Q -0.885 ± 0.35, D -0.554 ± 0.21, C -0.307 ± 0.15, G -0.947 ± 0.2, E -0.351 ± 0.29, K -0.647 ± 0.31, T -0.481 ± 0.18, Y -0.797 ± 0.41, H 0.156 ± 0.27, R -0.039 ± 0.15, S -0.273 ± 0.19
S8: M -0.771 ± 0.17, K -0.696 ± 0.18, P -0.884 ± 0.14, D -0.587 ± 0.12, H -0.696 ± 0.13, I -0.518 ± 0.17, A -0.715 ± 0.18, G -0.571 ± 0.12, V -0.949 ± 0.15, F -0.935 ± 0.23, Q -0.749 ± 0.28, T 0.018 ± 0.1, R -0.93 ± 0.12, L -0.889 ± 0.12, C -0.9 ± 0.18, W -0.303 ± 0.16, Y 0.086 ± 0.14
A9: P -0.29 ± 0.085, G -0.714 ± 0.19, K -0.505 ± 0.097, C -0.564 ± 0.1, R -0.356 ± 0.072, T -0.332 ± 0.09, Y -0.916 ± 0.17, F -0.726 ± 0.26, V -0.359 ± 0.086, N -0.677 ± 0.16, W -0.527 ± 0.14, S -0.331 ± 0.078, E -0.042 ± 0.12, I -0.335 ± 0.2, L -0.5 ± 0.11, M -0.909 ± 0.25
E6: S -0.289 ± 0.19, D -0.443 ± 0.32, T -0.267 ± 0.4, F -0.159 ± 0.37, W -0.862 ± 0.15, H 0.415 ± 0.24, K 0.096 ± 0.28, R -0.226 ± 0.13, L -0.757 ± 0.24, G -0.302 ± 0.13, A 0.228 ± 0.19, P -0.384 ± 0.27, V 0.443 ± 0.2, M 0.08 ± 0.33
S13: Y -0.631 ± 0.14, T -0.212 ± 0.1, E 0.158 ± 0.11, F -0.436 ± 0.16, M 0.128 ± 0.093, K 0.502 ± 0.1, H -0.242 ± 0.13, N -0.261 ± 0.17, W -0.689 ± 0.18, G -0.015 ± 0.082, L -0.045 ± 0.08, C -0.134 ± 0.14, I -0.527 ± 0.23, D -0.326 ± 0.22, V 0.066 ± 0.09
E5: Y -0.042 ± 0.47, C -0.341 ± 0.32, L -0.423 ± 0.076, H -0.636 ± 0.37, W -0.639 ± 0.24, Q -0.347 ± 0.46, V -0.719 ± 0.26, N -0.09 ± 0.25, S -0.107 ± 0.12, A 0.173 ± 0.22, R -0.341 ± 0.09, T -0.697 ± 0.34, I -0.196 ± 0.26, D -0.341 ± 0.37, K -0.031 ± 0.16, M -0.209 ± 0.11
E3: W -0.873 ± 0.46, M 0.132 ± 0.29, T 0.741 ± 0.15, P -0.466 ± 0.47, S 0.173 ± 0.09, R -0.147 ± 0.11, V -0.151 ± 0.095, G -0.475 ± 0.15, N 0.993 ± 0.19, K 0.566 ± 0.19, A -0.342 ± 0.14, Q -0.357 ± 0.32, D -0.006 ± 0.079, L 0.135 ± 0.08, Y 0.938 ± 0.43
F15: N -0.969 ± 0.21, Y -1.15 ± 0.32, V -0.316 ± 0.11, K -0.86 ± 0.11, L -0.697 ± 0.12, M -0.528 ± 0.087, H 0.397 ± 0.13, W -1.02 ± 0.24, Q -0.217 ± 0.17, E -0.695 ± 0.24, D -0.578 ± 0.25, R -0.485 ± 0.1, G -0.788 ± 0.14, P -0.918 ± 0.22, S -0.543 ± 0.089, I -0.836 ± 0.16, T -0.851 ± 0.14, A -0.861 ± 0.15
E16: H -0.202 ± 0.079, I -0.693 ± 0.17, G -0.907 ± 0.13, F -0.422 ± 0.16, D -0.572 ± 0.27, C -0.725 ± 0.24, A -0.119 ± 0.11, K -0.359 ± 0.2
D2: T 0.271 ± 0.17, M 0.033 ± 0.22, H -0.296 ± 0.072, G 0.204 ± 0.084, E 0.199 ± 0.076, F -0.133 ± 0.47, A 0.033 ± 0.15, W -0.323 ± 0.28, S -0.249 ± 0.23, N 0.058 ± 0.23, R -0.285 ± 0.15, P -0.617 ± 0.49, K 0.523 ± 0.093
A12: D -0.875 ± 0.19, Y -0.768 ± 0.15, E -0.471 ± 0.21, G -0.618 ± 0.098, T -0.238 ± 0.085, F -0.941 ± 0.27, R 0.22 ± 0.067, P -0.805 ± 0.15, V 0.076 ± 0.096, L -0.473 ± 0.069, K 0.358 ± 0.077, I -0.117 ± 0.17, H -0.041 ± 0.11, M 0.068 ± 0.12, W -0.816 ± 0.21, N -0.15 ± 0.093, Q 0.215 ± 0.11, C -0.273 ± 0.099, S -0.436 ± 0.1

Variants of: B2
Assay: as above
Conditions: Homo sapiens

Abundance fitness of substitutions, site by site:
V56: S -0.73 ± 0.036, Y -0.982 ± 0.062, T -0.013 ± 0.032, R -0.846 ± 0.048, W -0.844 ± 0.086
V59: N -0.19 ± 0.033, R -0.372 ± 0.033, A -0.027 ± 0.032, W -0.137 ± 0.052, E 0.011 ± 0.053, F -0.106 ± 0.025, G -0.176 ± 0.029, Q -0.055 ± 0.05, C -0.041 ± 0.028, D -0.067 ± 0.033, H -0.124 ± 0.03, I -0.04 ± 0.029, T -0.113 ± 0.031, K -0.451 ± 0.079, L -0.066 ± 0.027, M -0.027 ± 0.047
R61: G 0.034 ± 0.048, M -0.031 ± 0.065, I -0.003 ± 0.029, L 0.039 ± 0.037, W 0.07 ± 0.076, A 0.067 ± 0.051, T 0.092 ± 0.037, N 0.02 ± 0.033, Q 0.044 ± 0.083, E 0.234 ± 0.16, Y -0.076 ± 0.031, P 0.104 ± 0.046, D 0.039 ± 0.04, H 0.012 ± 0.032, K 0.108 ± 0.074, F 0.021 ± 0.043, V 0.079 ± 0.039
G60: C -0.081 ± 0.067, E 0.003 ± 0.25, Y -0.058 ± 0.1, D -0.063 ± 0.057, A -0.071 ± 0.12, N -0.006 ± 0.065, H -0.054 ± 0.074, F -0.211 ± 0.07, M -0.289 ± 0.12, L -0.227 ± 0.12, Q -0.328 ± 0.18, I -0.299 ± 0.11, S -0.068 ± 0.05, P -0.023 ± 0.16
E57: Y -0.357 ± 0.043, T -0.117 ± 0.042, A -0.232 ± 0.048, P -0.848 ± 0.099, Q -0.083 ± 0.081, K -0.471 ± 0.12, D -0.251 ± 0.053, I -0.223 ± 0.034, F -0.527 ± 0.049, L -0.368 ± 0.041, V -0.107 ± 0.035, G -0.536 ± 0.048, N -0.447 ± 0.047, S -0.252 ± 0.031, M -0.346 ± 0.081, H -0.224 ± 0.039, R -0.197 ± 0.043, W -0.921 ± 0.17, C -0.168 ± 0.041
E58: W -0.106 ± 0.061, Q -0.113 ± 0.069, H -0.156 ± 0.034, R -0.171 ± 0.035, Y -0.305 ± 0.031, T -0.023 ± 0.039, K -0.156 ± 0.063, G -0.156 ± 0.034, F -0.285 ± 0.03, L -0.348 ± 0.033, A -0.134 ± 0.045, V -0.201 ± 0.035, D -0.026 ± 0.037, S -0.064 ± 0.026, M -0.326 ± 0.061, C -0.146 ± 0.032
